Experimental findings from the DeepSol protein solubility set are described below.

This series in a line: soluble on expression in E. coli; label from the status in PepcDB or PDB records.
Regarding “MSLTRICIVGAGAVGGYLGARLALAGEAVNVLARGATLQALQTAGLRLTEDGATHTLPVRATHDAVALGEQDVVIVAVKAPALESVAAAIAPLIGPGTCVVVAMNGVPWWFFDRPGPLQGQRLQAVDPHGRIAQAIPTRHVLGCVVHLTSATASPGHIRHGNGRRLILGEPAGGASPRLASIAALFGRAGLQAECSEAIQRDIWFKLWGNMTMNPVSVLTGATCDRILDDPLVSAFCLAVMAEAKAIGARIGCPIEQSGEARSAVTRQLGAFKTSMLQDAEAGRGPLEIDALVASVREIGRHVGVPTPQIDTLLGLVRLHAQTRGLYEGHHHHHH”, the “soluble on expression in E. coli” value is “soluble”.
Turning to “MSLTRRSDTSLRAALIIQNWYRGYKARLKARQHYALTIFQSIEYADEQGQMQLSTFFSFMLENYTHIHKEELELRNQSLESEQDMRDRWDYVDSIDVPDSYNGPRLQFPLTCTDIDLLLEAFKEQQILHAHYVLEVLFETKKVLKQMPNFTHIQTSPSKEVTICGDLHGKLDDLFLIFYKNGLPSERNPYVFNGDFVDRGKNSIEILMILCVSFLVYPNDLHLNRGNHEDFMMNLRYGFTKEILHKYKLHGKRILQILEEFYAWLPIGTIVDNEILVIHGGISETTDLNLLHRVERNKMKSVLIPPTETNRDHDTDSKHNKVGVTFNAHGRIKTNGSPTEHLTEHEWEQIIDILWSDPRGKNGCFPNTCRGGGCYFGPDVTSKILNKYQLKMLIRSHECKPEGYEICHDGKVVTIFSASNYYEEGSNRGAYIKLCSGTTPRFFQYQVTKATCFQPLREGHHHHHH”, the “soluble on expression in E. coli” value is recorded as “not soluble”.
As for “MSLTTFLFRNGALLDPDHPDLLQGFEILIEDGFIREVSDKPIKSSNAHVIDVKGKTIMPGLIDLHVHVVAIEFNLPRVATLPNVLVTLRAVPIMRAMLRRGFTTVRDAGGAGYPFKQAVESGLVEGPRLFVSGRALSQTGGHADPRARSDYMPPDSPCGCCVRVGALGRVADGVDEVRRAVREELQMGADQIKIMASGGVASPTDPVGVFGYSEDEIRAIVAEAQGRGTYVLAHAYTPAAIARAVRCGVRTIEHGNLIDDETARLVAEHGAYVVPTLVTYDALASEGEKYGLPPESIAKIADVHGAGLHSIEIMKRAGVKMGFGTDLLGEAQRLQSDEFRILAEVLSPAEVIASATIVSAEVLGMQDKLGRIVPGAHADVLVVDGNPLKSVDCLLGQGEHIPLVMKDGRLFVNELEGHEGHHHHHH”, the entry is “soluble”.
As for “MSLTVSNNFKMIYIASCGEGINAFHLVESTLVQFPDSDITVVKVPHIRTESQVDHLLDRVKDVESLIAHTIVEPNLRQYLVTKAEEHKIVTIDLMGQVLNKIETFLSIRPLGKPGLYRETHQVDLKQVTAIDFALAHDDGLRPESLDEAEIILVGLSRAGKTPLSMYMGVMGWKVANIPYVPGVPMPQTLDEVDRRRVIALNINIEQLLSHRKMRQESLGTSDMHAYSRRQEVEVEVQTAQKYYITKGFSMIDVSNKPIETSAEEIAEMITRRFKAQAHEGHHHHHH”, the entry is “not soluble”.
On to “MSLTVVLIVDDHHLIRAGAKNLLEGAFSGMRVEGAETVSDALAFLEADNTVDLILLDVNLPDAEAIDGLVRLKRFDPSNAVALISGETDHELIRAALEAGADGFIPKSADPQVLIHAVSLILEGEIFLPRSYLQGGRMAEVATPLDSSERPEQNLTPRQRDVFELMCKGLANKEIARLLDLSESTVKSHVSAIFKQIGTTSRSKTIAIFRQEGVALPSASEDEGHHHHHH”, for which the “soluble on expression in E. coli” value was “soluble”.
Consider “MSLTYQFMQPYTFKNGVTLKNRMVMSPTTTMSSFYDGHVTNDEIKFYDVRAGGPGMIIGEVANVIASGKGFEGELSIADDGDIDGLSRLANAMKRGGTKAILQIFHAGRKSNDSILRGEQPVSASAVKAVFPPDSQTPRELTAAEIDEIIVAFGEATRRAIAAGFDGVELHGANTYLLQQFFSPNSNRRTDKWGGDRDARMGFAKAVIASSQQAIDTYADRPFLLGYRISPEEIETPGIRLADSLAFVDMLGDSTVDYVHTSMGSAHRTSLNDKTDHEPILKQLVQQLAGRKPLIGVGSVEKPADAEAVLEMGADLVAMGREFIREPQWVEKIVDGDEASIRYQISPSELDELAIPRAMQDYLKGAFYSVMHFTTDPSVAVDYQNEGHHHHHH”, for which the “soluble on expression in E. coli” value is given as “soluble”.
The same measure for “MSLVMSDTLNSLQLGERPEGRTLLTASWVVGHKDGSHRLLKNGEVVFENGEILFVGHGFPGEVARRIDFGNALVSPGLIDLDALSDLDTTILGIDHHPGWAKGRVWPRSYVEAGPYEMYSAEELAFQKRFAFGQLLLNGITTAAPIASLFYRAWGETVAEFEAAADAAGELGLRVYLSPAFRSGGMVLEEPGRMFPVFDEERGFQGLKEAIAFIEKQSGRHGDLVRGMLAPDRVETSTLGLIERTDAAARELGCKFRLHMAQGVMEVDTVRKLHGSTAPVWLAKAGLLSERLIAPHATNATEEDLALYAENGVSIVHCPLVSSRGGSTLSSFSSCRKRGINIAMGTDTAPADMFMNLLVGLITCRINDGAPDQIRCADLFDAATLGGARALGRSDLGHLSSGARADIAVFDLDDAVMAPSVDPITTLVTGGSGKVTRAVFVDGRLSMRERQVAHIDMRRAREQAQAQFDRLIAKYPERSWANPPVSEIFPPSYQVEVAQHGEGHHHHHH”: “soluble”.
Consider “MSLWPQMQYRQLQLAREKLLERLARKRNSTVITLIHRQESIGLFGIPVYRFISIEDSEEVLRAIRMAPKDKPIDLIIHTPGGLVLAATQIAKALKDHPAETRVIVPHYAMSGGTLIALAADKIIMDPHAVLGPVDPQLGQYPAPSIVRAVEKKGVDKVDDQTLILADVAEKAIRQVRDFIFNLLKDKYGEEKAKELAQVLTEGRWTHDYPITVEEAKKLGLNVSTDVPEEVYALMELYKQPIRQRGTVEFVPYPMKQEGKHEGHHHHHH”, for which the “soluble on expression in E. coli” value is on record as “soluble”.
As for “MSLYCNLLKPIKIGNLELKNRVSFAPTSMGLKLEEKIKKFSDIAKSGVALITLGDVSIRPSFHKVAISLSDEDGVMKYKKIVDEIHNSGAKVSAQLFCSDYDVNLIKDTMKMGITSHDEIKKIMNDGVKDYITNMTKGEIKNIINLFKVTALNAKKAGFDMIQIHGDRLVGSFSSSIFNNRNDEYGGTCDNRSRFASEIISSIRDEVKDIPIDYKFAIRQENPHYGNAGVLLSEVEYFVKKFESLGVNSFHVTLANHSKLEDTIPTNNHPYFKDEGCFLYLADEVKKHTNLPVCGVGKLSSPDFIESIISNNRVDMVSMSRQLLADSNWLQKVKDGRVDEIKKCCYCNKKCADALQTRSQFGCILDEGHHHHHH”, the entry is “soluble”; as for “MSLYLITNRKLCSEERYLEVIKESILSGVENIIIREKDLEYQELRKLYMKIKTKINCIDFQEQISDESLKTNINQKECRNKFKVNFIINSNIEFFEKVDCQGIHLPFKLFLNLIENKYNFNENKILGLSLHKVEEVDYLEKLIRNQNIKIDYITLSHIYETKCKEGLNPKGIELLKEAKKITDIKIIALGGILPSNVKETLKYCDDFAIMSTIMRSKDIKKTISNYNEKLNEGHHHHHH”, “not soluble”; as for “MSLYNKVLIIDDHPVLRFAVRVLMEKEGFEVIGETDNGIDGLKIAREKIPNLVVLDIGIPKLDGLEVIARLQSLGLPLRVLVLTGQPPSLFARRCLNSGAAGFVCKHENLHEVINAAKAVMAGYTYFPSTTLSEMRMGDNAKSDSTLISVLSNRELTVLQLLAQGMSNKDIADSMFLSNKTVSTYKTRLLQKLNATSLVELIDLAKRNNLAEGHHHHHH”, “not soluble”.
The same measure for “MSMEPTLQSILDQRSLRWIFVGGKGGVGKTTTSCSLAIQLAKVRRSVLLLSTDPAHNLSDAFSQKFGKEARLVEGFDNLYAMEIDPNGSMQDLLAGQTGDGDAGMGGVGVMQDLAYAIPGIDEAMSFAEVLKQVNSLSYETIVFDTAPTGHTLRFLQFPTVLEKALAKVSQLSGQYGSLLNGILGGSGTLPNGQTLSDVMEKLDSLRVTISEVNAQFKDERLTTFVCVCIPEFLSLYETERMIQELANYGIDTHCIVVNQLLFPKPGSDCEQCTARRRMQKKYLDQIEELYDEEFNVVKMPLLVEEVRGKERLEKFSEMLIKPFVPPEHHHHHH”: “soluble”; for “MSMLKPSGLKAPTKILKPGSTALKTPTAVVAPVEKTISSEKASSTPSSETQEEFVDDFRVGERVWVNGNKPGFIQFLGETQFAPGQWAGIVLDEPIGKNDGSVAGVRYFQCEPLKGIFTRPSKLTRKVQAEDEANGLQTTPASRATSPLCTSTASMVSSSPSTPSNIPQKPSQPAAKEPSATPPISNLTKTASESISNLSEAGSIKKGERELKIGDRVLVGGTKAGVVRFLGETDFAKGEWCGVELDEPLGKNDGAVAGTRYFQCQPKYGLFAPVHKVTKIGFPSTTPAKAKANAVRRVMATTSASLKRSPSASSLSSMSSVASSVSSRPSRTGLLTETSSRYARKISGTTALQEALKEKQQHIEQLLAERDLERAEVAKATSHVGEIEQELALARDGHDQHVLELEAKMDQLRTMVEAADREKVELLNQLEEEKRKVEDLQFRVEEESITKGDLETQTKLEHARIKELEQSLLFEKTKADKLQRELEDTRVATVSEKSRIMELEKDLALRVQEVAELRRRLESNKPAGDVDMSLSLLQEISSLQEKLEVTRTDHQREITSLKEHFGAREETHQKEIKALYTATEKLSKENESLKSKLEHANKENSDVIALWKSKLETAIASHQQAMEELKVSFSKGLGTETAEFAELKTQIEKMRLDYQHEIENLQNQQDSERAAHAKEMEALRAKLMKVIKEKENSLEAIRSKLDKAEDQHLVEMEDTLNKLQEAEIKKEKFAEASEEAVSVQRSMQETVNKLHQKEEQFNMLSSDLEKLRENLADMEAKFREKDEREEQLIKAKEKLENDIAEIMKMSGDNSSQLTKMNDELRLKERDVEELQLKLTKANENASFLQKSIEDMTVKAEQSQQEAAKKHEEEKKELERKLSDLEKKMETSHNQCQELKARYERATSETKTKHEEILQNLQKTLLDTEDKLKGAREENSGLLQELEELRKQAEKAKAAQTAEDAMQIMEQMTKEKTETLASLEDTKQTNAKLQNELDTLKENNLKNVEELNKSKELLTVENQKMEEFRKEIETLKQAAAQKSQQLSALQEENVKLAEELGRSRDEVTSHQKLEEERSVLNNQLLEMKKRESKFIKDADEEKASLQKSISITSALLTEKDAELEKLRNEVTVLRGENASAKSLHSVVQTLESDKVKLELKVKNLELQLKENKRQLSSSSGNTDTQADEDERAQESQQMIDFLNSVIVDLQRKNQDLKMKVEMMSEAALNGNGDDLNNYDSDDQEKQSKKKPRLFCDICDCFDLHDTEDCPTQAQMSEDPPHSTHHGSRGEERPYCEICEMFGHWATNCNDDETF”: “soluble”.
The same measure for “MSNENHEELNDQLIVRREKVDTLREEGIDPFGEKFIRSISPEEIETKFADKSKEELEEAAIEVSVAGRIMTKRVKGKVGFTHIQDRFHQLQIYIRKDAIGEDAYAVFKLADLGDIIGIKGTIFRTNTGELSVKATEFTLLSKSLRPLPDKYHGLKDVEQRYRQRYLDLITNEESQNRFVMRSKILKYTRDYMDNQGFLEVETPVLHTIAGGAAAKPFITHHNALDMELYLRIALELHLKRLIVGGMDKVYEIGRVFRNEGTSTRHNPEFTMLESYAAYEDYEDVMDLVEGLVSTVCKQVNGTTEITYGEYKVDLTPNWRRIHMADAVKEYVGVDFWNVTSDEEARELAKKHDVPVTEHMTYGHILNEFFETYVEEKLIQPTFVYGHPVEISPLAKKNKEDERFTDRFELFIVGREHANAFSELNDPIDQRERFEAQMKEREQGNDEAHGMDADFLEALEYGLPPTGGLGIGIDRLVMLLTDAPSIRDILLFPTMKHRD”: “not soluble”; for “MSNGIVIIGSGFAARQLVKNIRKQDATIPLTLIAADSMDEYNKPDLSHVISQGQRADDLTRQTAGEFAEQFNLHLFPQTWVTDIDAEARVVKSQNNQWQYDKLVLATGASAFVPPVPGRELMLTLNSQQEYRACETQLRDARRVLIVGGGLIGSELAMDFCRAGKAVTLIDNAASILASLMPPEVSSRLQHRLTEMGVHLLLKSQLQGLEKTDSGIQATLDRQRNIEVDAVIAATGLRPETALARRAGLTINRGVCVDSYLQTSNTDIYALGDCAEINGQVLPFLQPIQLSAMVLAKNLLGNNTPLKLPAMLVKIKTPELPLHLAGETQRQDLRWQINTERQGMVARGVDDADQLRAFVVSEDRMKEAFGLLKTLPM”: “not soluble”.
